Results from patent US20260317437 (published 2026).
Changes are numbered by the printed parent chain. Names may count otherwise. Like-named read-outs stand apart in the source and are kept apart here.

B1: VH Y31W (antibody, V domains shown)
VH: EVQLVESGGGLVQPGGSLRLSCAASGFNIYWNYIHWVRQAPGKGLEWVAEFSPYSGSTYYADSVKGRFTISADTSKNTAYLQMNSLRAEDTAVYYCARSAAIVDWYDYFKGFDYWGQGTLVTVSS
VL: DIQMTQSPSSLSASVGDRVTITCRASQSVSSAVAWYQQKPGKAPKLLIYSASSLYSGVPSRFSGSRSGTDFTLTISSLQPEDFATYYCQQYGSYLYTFGQGTKVEIK
B2: VL Y91E (antibody, V domains shown)
VH: B1 VH with W31Y
VL: B1 VL with Y91E
B3: VH Y54A (antibody, V domains shown)
VH: B1 VH with W31Y, Y54A
VL: B1 VL
B4: VH Y30T (antibody, V domains shown)
VH: B1 VH with Y30T, W31Y
VL: B1 VL
B5: VH Y30I (antibody, V domains shown)
VH: B1 VH with Y30I, W31Y
VL: B1 VL
B6: VL Y55A (antibody, V domains shown)
VH: B1 VH with W31Y
VL: B1 VL with Y55A
B7: VH W100aR (antibody, V domains shown)
VH: B1 VH with W31Y, W105R
VL: B1 VL
B8: VH Y31R (antibody, V domains shown)
VH: B1 VH with W31R
VL: B1 VL
B9: VH Y30L (antibody, V domains shown)
VH: B1 VH with Y30L, W31Y
VL: B1 VL
B10: VL S93I (antibody, V domains shown)
VH: B1 VH with W31Y
VL: B1 VL with S93I
B11: VH W100aA (antibody, V domains shown)
VH: B1 VH with W31Y, W105A
VL: B1 VL
B12: VH Y31K (antibody, V domains shown)
VH: B1 VH with W31K
VL: B1 VL
B13: VL Y94T (antibody, V domains shown)
VH: B1 VH with W31Y
VL: B1 VL with Y94T
B14: VL Y94E (antibody, V domains shown)
VH: B1 VH with W31Y
VL: B1 VL with Y94E
B15: VL Y94V (antibody, V domains shown)
VH: B1 VH with W31Y
VL: B1 VL with Y94V
B16: VL Y91A (antibody, V domains shown)
VH: B1 VH with W31Y
VL: B1 VL with Y91A
B17: VH Y59A (antibody, V domains shown)
VH: B1 VH with W31Y, Y59A
VL: B1 VL
B18: VL Y91D (antibody, V domains shown)
VH: B1 VH with W31Y
VL: B1 VL with Y91D
B19: VH Y31H (antibody, V domains shown)
VH: B1 VH with W31H
VL: B1 VL
B20: VH Y31I (antibody, V domains shown)
VH: B1 VH with W31I
VL: B1 VL
B21: VH S54R (antibody, V domains shown)
VH: B1 VH with W31Y, S55R
VL: B1 VL
B22: VL S93V (antibody, V domains shown)
VH: B1 VH with W31Y
VL: B1 VL with S93V
B23: VH Y30N (antibody, V domains shown)
VH: B1 VH with Y30N, W31Y
VL: B1 VL
B24: VH Y31E (antibody, V domains shown)
VH: B1 VH with W31E
VL: B1 VL
B25: VL Y94A (antibody, V domains shown)
VH: B1 VH with W31Y
VL: B1 VL with Y94A
B26: VL Y91T (antibody, V domains shown)
VH: B1 VH with W31Y
VL: B1 VL with Y91T
B27: VL Y94D (antibody, V domains shown)
VH: B1 VH with W31Y
VL: B1 VL with Y94D
B28: VH Y30A (antibody, V domains shown)
VH: B1 VH with Y30A, W31Y
VL: B1 VL
B29: VL Y94Q (antibody, V domains shown)
VH: B1 VH with W31Y
VL: B1 VL with Y94Q
B30: VH F51A (antibody, V domains shown)
VH: B1 VH with W31Y, F51A
VL: B1 VL
B31: VH Y30D (antibody, V domains shown)
VH: B1 VH with Y30D, W31Y
VL: B1 VL
B32: VL S93H (antibody, V domains shown)
VH: B1 VH with W31Y
VL: B1 VL with S93H
B33: VH W100aK (antibody, V domains shown)
VH: B1 VH with W31Y, W105K
VL: B1 VL
B34: VH W100aH (antibody, V domains shown)
VH: B1 VH with W31Y, W105H
VL: B1 VL
B35: VH Y30S (antibody, V domains shown)
VH: B1 VH with Y30S, W31Y
VL: B1 VL
B36: VL Y91H (antibody, V domains shown)
VH: B1 VH with W31Y
VL: B1 VL with Y91H
B37: VH Y30E (antibody, V domains shown)
VH: B1 VH with Y30E, W31Y
VL: B1 VL
B38: VH Y31S (antibody, V domains shown)
VH: B1 VH with W31S
VL: B1 VL
B39: VL Y94S (antibody, V domains shown)
VH: B1 VH with W31Y
VL: B1 VL with Y94S
B40: VL Y91L (antibody, V domains shown)
VH: B1 VH with W31Y
VL: B1 VL with Y91L
B41: VL Y96A (antibody, V domains shown)
VH: B1 VH with W31Y
VL: B1 VL with Y96A
B42: VH Y31F (antibody, V domains shown)
VH: B1 VH with W31F
VL: B1 VL
B43: VH Y31N (antibody, V domains shown)
VH: B1 VH with W31N
VL: B1 VL
B44: VL Y94N (antibody, V domains shown)
VH: B1 VH with W31Y
VL: B1 VL with Y94N
B45: VH Y33A (antibody, V domains shown)
VH: B1 VH with W31Y, Y33A
VL: B1 VL
B46: VH Y31D (antibody, V domains shown)
VH: B1 VH with W31D
VL: B1 VL

Columns and labels:
Test in all cases: SPR
[1] = target: T1, GCGR extracellular domain (human, UniProt P47871)
[2] = target: T1, GCGR extracellular domain; remark: listed apart in the source
[3] = target: T1, GCGR extracellular domain; remark: listed apart in the source

T1 sequence (P47871 26-477): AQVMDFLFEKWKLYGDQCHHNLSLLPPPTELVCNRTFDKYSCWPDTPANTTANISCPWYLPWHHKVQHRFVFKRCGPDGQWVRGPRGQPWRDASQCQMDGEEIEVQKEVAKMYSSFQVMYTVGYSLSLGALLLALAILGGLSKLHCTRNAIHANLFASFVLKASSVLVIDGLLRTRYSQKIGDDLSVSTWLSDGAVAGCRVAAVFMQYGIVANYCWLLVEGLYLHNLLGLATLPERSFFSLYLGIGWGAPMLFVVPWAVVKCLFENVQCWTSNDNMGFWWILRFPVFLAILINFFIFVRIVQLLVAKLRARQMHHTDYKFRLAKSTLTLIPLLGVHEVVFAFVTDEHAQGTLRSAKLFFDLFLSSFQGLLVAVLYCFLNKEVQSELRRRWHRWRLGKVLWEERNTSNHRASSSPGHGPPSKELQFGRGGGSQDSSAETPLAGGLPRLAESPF

Binder | binding result [1] | Kd [2] [nM] | Kd [3] [nM]
B1 | no binding |  | 
B2 |  | 3.42 | 
B3 |  |  | 46
B4 |  | 24.8 | 
B5 |  | 5.54 | 
B6 |  |  | 0.74
B7 | no binding |  | 
B8 | no binding |  | 
B9 |  | 4.63 | 
B10 |  | 2.28 | 
B11 |  | 16.3 | 11
B12 | no binding |  | 
B13 |  | 2.71 | 
B14 |  | 1.85 | 
B15 |  | 2.46 | 
B16 |  | 98.5 | 0.84
B17 |  |  | 0.32
B18 |  | 7.08 | 
B19 |  | 17.5 | 
B20 | no binding |  | 
B21 |  | 16 | 
B22 |  | 1.74 | 
B23 |  | 103 | 

Binder | binding result [1] | Kd [2] [nM] | Kd [3] [nM]
B24 | no binding |  | 
B25 |  | 2.64 | 
B26 |  | 2.42 | 
B27 |  | 1.92 | 
B28 |  | 21.3 | 
B29 |  | 2.08 | 
B30 |  |  | 1.5
B31 |  | 20.2 | 
B32 |  | 2.38 | 
B33 | no binding |  | 
B34 |  | 41.7 | 
B35 |  | 261 | 
B36 |  | 2.82 | 
B37 |  | 45.1 | 
B38 | no binding |  | 
B39 |  | 2.08 | 
B40 |  | 4.2 | 
B41 |  |  | 0.93
B42 |  | 6.94 | 
B43 | no binding |  | 
B44 |  | 1.84 | 
B45 |  | 267 | 53
B46 | no binding |  | 
